Where no end group is shown, it is not given here. [ ]: non-standard residue; d: D form. Bip(2'-Et-4'-OMe) = CCc1cc(OC)ccc1-c1ccc(C[C@H](N)C(=O)O)cc1; αMePhe(2,6-F2) = C[C@](N)(Cc1c(F)cccc1F)C(=O)O; αMePhe(2-F) = C[C@](N)(Cc1ccccc1F)C(=O)O; αMeBip(OMe) = alpha-methylated Bip(OMe); hhPhe = N[C@@H](CCCc1ccccc1)C(=O)O; αMeD = C[C@](N)(CC(=O)O)C(=O)O; αMeP = C[C@@]1(C(=O)O)CCCN1; αMeAPPA = not defined here; αMeS = C[C@](N)(CO)C(=O)O; Aib = CC(C)(N)C(=O)O

B1: Seq. ID. No. 169 (peptide)
peptide: VHSEGT[αMePhe(2-F)]T[αMeS]D[αMeBip(OMe)][αMeAPPA]
modifications: not fully specified (C-terminus); printed as VHSEGT-(αMe-2FPhe)-T-(αMe-Ser)-D-(αMe-Bip(OMe))-(αMe-APPA); reading uncertain
B2: Seq. ID. No. 208 (peptide)
peptide: VVH[αMeP]QGTFTSD[αMeBip(OMe)][hhPhe]
modifications: not fully specified (C-terminus); printed as VVH-(αMe-Pro)-QGTFTSD-(αMe-Bip(OMe))-(APPA)
B3: Seq. ID. No. 87 (peptide)
peptide: VHSEGTFTSD[Bip(2'-Et-4'-OMe)][αMeAPPA]
modifications: not fully specified (C-terminus); printed as VHSEGTFTSD-Bip(OMe)-(αMe-APPA); reading uncertain
B4: Seq. ID. No. 189 (peptide)
peptide: VHSQGT[αMePhe(2-F)]TS[αMeD][αMeBip(OMe)][αMeAPPA]
modifications: not fully specified (C-terminus); printed as VHSQGT-(αMe-2FPhe)-TS-(αMe-Asp)-(αMe-Bip(OMe))-(αMe-APPA); reading uncertain
B5: Seq. ID. No. 113 (peptide)
peptide: VH[Aib]EGTFT[αMeS][αMeD][Bip(2'-Et-4'-OMe)][αMeAPPA]
modifications: not fully specified (C-terminus); printed as VH-Aib-EGTFT-(αMe-Ser)-(αMe-Asp)-Bip(OMe)-(αMe-APPA); reading uncertain
B6: Seq. ID. No. 163 (peptide)
peptide: VH[Aib]EGTFT[αMeS]D[αMeBip(OMe)][αMeAPPA]
modifications: not fully specified (C-terminus); printed as VH-Aib-EGTFT-(αMe-Ser)-D-(αMe-Bip(OMe))-(αMe-APPA); reading uncertain

Chain of human glucagon receptor (P47871 26-477): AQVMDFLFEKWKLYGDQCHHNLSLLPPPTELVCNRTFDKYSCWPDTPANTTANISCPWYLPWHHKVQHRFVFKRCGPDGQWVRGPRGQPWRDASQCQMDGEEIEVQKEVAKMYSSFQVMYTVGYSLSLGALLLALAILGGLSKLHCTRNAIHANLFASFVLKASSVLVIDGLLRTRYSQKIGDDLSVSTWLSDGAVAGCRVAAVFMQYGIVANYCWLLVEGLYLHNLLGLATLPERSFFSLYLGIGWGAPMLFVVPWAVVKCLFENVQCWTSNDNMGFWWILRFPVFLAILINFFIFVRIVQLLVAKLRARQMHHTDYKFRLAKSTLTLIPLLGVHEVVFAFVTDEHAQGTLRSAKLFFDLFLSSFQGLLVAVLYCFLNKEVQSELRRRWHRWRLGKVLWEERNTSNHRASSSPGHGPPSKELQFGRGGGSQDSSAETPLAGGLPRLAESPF

The test concerns the target human glucagon receptor (human, UniProt P47871 26-477). The test can be described thus: cell-based or functional assay.
In the case of VHAEGT[αMePhe(2-F)]TS[αMeD][αMeBip(OMe)][hhPhe]-NH2 [Seq. ID. No. 70], the “cAMP production (pmol/ml/µg prt) with saturated glucagon peptide, at 1 nM” value (“cAMP production (pmol/ml/µg prt) … at 1 nM” for short) turned out to be 2 pmol/ml/µg prt; the “cAMP production (pmol/ml/µg prt) with saturated glucagon peptide, at 10 nM” value (“cAMP production (pmol/ml/µg prt) … at 10 nM” for short) was found to be 0 pmol/ml/µg prt; the “cAMP production (pmol/ml/µg prt) with saturated glucagon peptide, at 100 nM” value (from here on “cAMP production (pmol/ml/µg prt) … at 100 nM”) is 0 pmol/ml/µg prt; the “cAMP production (pmol/ml/µg prt) with saturated glucagon peptide, at 1 µM” value (shortened to “cAMP production (pmol/ml/µg prt) … at 1 µM”) was determined as 0 pmol/ml/µg prt. The “cAMP production (pmol/ml/µg prt) with saturated glucagon peptide, at 10 µM” value (from here on “cAMP production (pmol/ml/µg prt) … at 10 µM”) amounted to 0 pmol/ml/µg prt.

Take B1: the “cAMP production (pmol/ml/µg prt) … at 1 nM” value stood at 5 pmol/ml/µg prt; the “cAMP production (pmol/ml/µg prt) … at 10 nM” value stood at 2 pmol/ml/µg prt; the “cAMP production (pmol/ml/µg prt) … at 100 nM” value amounted to 0 pmol/ml/µg prt; the “cAMP production (pmol/ml/µg prt) … at 1 µM” value was 0 pmol/ml/µg prt. For the same molecule, the “cAMP production (pmol/ml/µg prt) … at 10 µM” value was found to be 0 pmol/ml/µg prt.

With VH[αMeP]QGT[αMePhe(2,6-F2)]TS[αMeD][αMeBip(OMe)][αMeAPPA] (not fully specified (C-terminus); reading uncertain) [Seq. ID. No. 200], the “cAMP production (pmol/ml/µg prt) … at 1 nM” value was found to be 10 pmol/ml/µg prt; the “cAMP production (pmol/ml/µg prt) … at 10 nM” value amounted to 8 pmol/ml/µg prt; the “cAMP production (pmol/ml/µg prt) … at 100 nM” value is 6 pmol/ml/µg prt; the “cAMP production (pmol/ml/µg prt) … at 1 µM” value is 4 pmol/ml/µg prt. Further, the “cAMP production (pmol/ml/µg prt) … at 10 µM” value was 1 pmol/ml/µg prt.

For VH[αMeP]EGT[αMePhe(2,6-F2)]TS[αMeD][αMeBip(OMe)][αMeAPPA] (not fully specified (C-terminus); reading uncertain) [Seq. ID. No. 204], the “cAMP production (pmol/ml/µg prt) … at 1 nM” value amounted to 9 pmol/ml/µg prt; the “cAMP production (pmol/ml/µg prt) … at 10 nM” value came to 6 pmol/ml/µg prt; the “cAMP production (pmol/ml/µg prt) … at 100 nM” value stood at 5 pmol/ml/µg prt; the “cAMP production (pmol/ml/µg prt) … at 1 µM” value is 3 pmol/ml/µg prt. Besides, the “cAMP production (pmol/ml/µg prt) … at 10 µM” value amounted to 0 pmol/ml/µg prt.

B2: the “cAMP production (pmol/ml/µg prt) … at 1 nM” value was 4 pmol/ml/µg prt; the “cAMP production (pmol/ml/µg prt) … at 10 nM” value stood at 2 pmol/ml/µg prt; the “cAMP production (pmol/ml/µg prt) … at 100 nM” value was found to be 0 pmol/ml/µg prt; the “cAMP production (pmol/ml/µg prt) … at 1 µM” value turned out to be 0 pmol/ml/µg prt. Also, the “cAMP production (pmol/ml/µg prt) … at 10 µM” value came to 0 pmol/ml/µg prt.

Take B3: the “cAMP production (pmol/ml/µg prt) … at 1 nM” value was 5 pmol/ml/µg prt; the “cAMP production (pmol/ml/µg prt) … at 10 nM” value is 3 pmol/ml/µg prt; the “cAMP production (pmol/ml/µg prt) … at 100 nM” value turned out to be 1 pmol/ml/µg prt; the “cAMP production (pmol/ml/µg prt) … at 1 µM” value came to 0 pmol/ml/µg prt. Besides, the “cAMP production (pmol/ml/µg prt) … at 10 µM” value is 0 pmol/ml/µg prt.

Take B4: the “cAMP production (pmol/ml/µg prt) … at 1 nM” value was 4 pmol/ml/µg prt; the “cAMP production (pmol/ml/µg prt) … at 10 nM” value is 2 pmol/ml/µg prt; the “cAMP production (pmol/ml/µg prt) … at 100 nM” value stood at 0 pmol/ml/µg prt; the “cAMP production (pmol/ml/µg prt) … at 1 µM” value stood at 0 pmol/ml/µg prt. Also, the “cAMP production (pmol/ml/µg prt) … at 10 µM” value was 0 pmol/ml/µg prt.

Consider B5, for which the “cAMP production (pmol/ml/µg prt) … at 1 nM” value turned out to be 4 pmol/ml/µg prt; the “cAMP production (pmol/ml/µg prt) … at 10 nM” value was determined as 2 pmol/ml/µg prt; the “cAMP production (pmol/ml/µg prt) … at 100 nM” value was 0 pmol/ml/µg prt; the “cAMP production (pmol/ml/µg prt) … at 1 µM” value is 0 pmol/ml/µg prt. In addition, the “cAMP production (pmol/ml/µg prt) … at 10 µM” value turned out to be 0 pmol/ml/µg prt.

For VH[αMeP]EGT[αMePhe(2,6-F2)]TS[αMeD][αMeBip(OMe)][hhPhe] (not fully specified (C-terminus)) [Seq. ID. No. 80], the “cAMP production (pmol/ml/µg prt) … at 1 nM” value was found to be 0 pmol/ml/µg prt; the “cAMP production (pmol/ml/µg prt) … at 10 nM” value turned out to be 0 pmol/ml/µg prt; the “cAMP production (pmol/ml/µg prt) … at 100 nM” value is 0 pmol/ml/µg prt; the “cAMP production (pmol/ml/µg prt) … at 1 µM” value turned out to be 0 pmol/ml/µg prt. For the same molecule, the “cAMP production (pmol/ml/µg prt) … at 10 µM” value is 0 pmol/ml/µg prt.

As to B6, the “cAMP production (pmol/ml/µg prt) … at 1 nM” value came out at 15 pmol/ml/µg prt; the “cAMP production (pmol/ml/µg prt) … at 10 nM” value was 12 pmol/ml/µg prt; the “cAMP production (pmol/ml/µg prt) … at 100 nM” value is 8 pmol/ml/µg prt; the “cAMP production (pmol/ml/µg prt) … at 1 µM” value stood at 4 pmol/ml/µg prt. In addition, the “cAMP production (pmol/ml/µg prt) … at 10 µM” value turned out to be 2 pmol/ml/µg prt.

As for VH[Aib]QGT[αMePhe(2,6-F2)]TS[αMeD][αMeBip(OMe)][αMeAPPA] (not fully specified (C-terminus); reading uncertain) [Seq. ID. No. 199], the “cAMP production (pmol/ml/µg prt) … at 1 nM” value was determined as 14 pmol/ml/µg prt; the “cAMP production (pmol/ml/µg prt) … at 10 nM” value was 11 pmol/ml/µg prt; the “cAMP production (pmol/ml/µg prt) … at 100 nM” value amounted to 7 pmol/ml/µg prt; the “cAMP production (pmol/ml/µg prt) … at 1 µM” value was determined as 3 pmol/ml/µg prt. Moreover, the “cAMP production (pmol/ml/µg prt) … at 10 µM” value is 0 pmol/ml/µg prt.

Turning to VH[Aib]QGT[αMePhe(2-F)]T[αMeS]D[αMeBip(OMe)][αMeAPPA] (not fully specified (C-terminus); reading uncertain) [Seq. ID. No. 167], the “cAMP production (pmol/ml/µg prt) … at 1 nM” value is 9 pmol/ml/µg prt; the “cAMP production (pmol/ml/µg prt) … at 10 nM” value was found to be 6 pmol/ml/µg prt; the “cAMP production (pmol/ml/µg prt) … at 100 nM” value worked out at 5 pmol/ml/µg prt; the “cAMP production (pmol/ml/µg prt) … at 1 µM” value is 3 pmol/ml/µg prt. In addition, the “cAMP production (pmol/ml/µg prt) … at 10 µM” value came to 0 pmol/ml/µg prt.

Values taken from patent US20120264685A1 (priority 2009, published 2012).
